Substrate: O=[N+]([O-])c1ccccc1O[C@@H]1O[C@H](CO)[C@H](O)[C@H](O)[C@H]1O
Assay: purified protein
Type: biochemical, Bifidobacterium breve
Settings: 50 mM sodium phosphate pH 6.5, 30 °C, 0.01-22 mM oNPG

B1: Bbreβgal-III (Bifidobacterium breve DSM 20213 = JCM 1192) (protein)
chain: MEHREFKWPQPLAGGKPRIWYGGDYNPDQWPEEVWDEDVALMQKAGVNLVSVAIFSWAKLEPEEGVYDFDWLDRVIDKLGKAGIAVDLASGTASPPMWMTQAHPEILWVDYRGDVCQPGARQHWRATSPVFLDYALNLCRKMAEHYKDNPYVVSWHVSNEYGCHNRFDYSEDAERAFQKWCEKKYGTIDAVNDAWGTAFWAQRMNNFSEIIPPRFIGDGNFMNPGKLLDWKRFSSDALLDFYKAERDALLEIAPKPQTTNFMVSAGGAGIDYDKWGYDVDFVSNDHYFTPGEAHFDELAYSASLCDGIARKNPWFLMEHSSSAVNWRPINYRVEPGELVRDSLAHLAMGSDAICYFQWRQSKAGAEKWHSSMVPHAGPDSQIFRDVCELGADLNKLADEGLLSTKLVKSKVAVVFDYESQWATEHTATPTQEVRHWTEPLAWFRALADNGLTADVVPVRGPWDEYEAVVLPSLTILSEETTRRVREYVANGGKLFVTYYTGLVDDKDHVWLGGYPGSIRDVVGVRVEEFAPMGNDFPGAIDHLDLDNGTVAHDFADVITSVADTAHVVAAFKADKWTGFDGAPAITVNDFGDGKAAYIGARLGREGLAKSLPALLEELGIETSAEDDRGEVLRVERADETGENHFVFLFNRTHDVAIVDVDGEPLVASLAQVNESEHTAAIQPNGVLVVKL
notes: pET21a(+) NdeI/NotI, His-tagged, E. coli BL21 Star (DE3), IMAC purified
Km: 1570 ± 160 µM
Vmax: 3650 µmol/min/mg
kcat: 4690 ± 260 s⁻¹
kcat/Km: 2.99e+06 ± 140000 M⁻¹ s⁻¹

Source: paper PMC12756740, “A GH42 β‑Galactosidase from the Human Isolate Bifidobacterium breve DSM 20213: Biochemical and Transgalactosylation Properties Reveal the Potential for Galacto-oligosaccharides Synthesis” (ACS Omega, 2025)
